Experimental data from publication PMC8760323, “Single-chain tandem macrocyclic peptides as a scaffold for growth factor and cytokine mimetics” (Communications Biology, 2022).
Positions of bridges follow the written chain, without caps; N, C: chain ends. No end group written: not given here.

Tests used:
[1] = target: T1, recombinant human Met ectodomain-Fc (Homo sapiens, UniProt P08581); experiment: SPR analysis, human Met ectodomain; format: binding
T1 construct: recombinant human Met ectodomain-Fc; purchased R&D Systems
T1 sequence (P08581 25-932 limits assumed): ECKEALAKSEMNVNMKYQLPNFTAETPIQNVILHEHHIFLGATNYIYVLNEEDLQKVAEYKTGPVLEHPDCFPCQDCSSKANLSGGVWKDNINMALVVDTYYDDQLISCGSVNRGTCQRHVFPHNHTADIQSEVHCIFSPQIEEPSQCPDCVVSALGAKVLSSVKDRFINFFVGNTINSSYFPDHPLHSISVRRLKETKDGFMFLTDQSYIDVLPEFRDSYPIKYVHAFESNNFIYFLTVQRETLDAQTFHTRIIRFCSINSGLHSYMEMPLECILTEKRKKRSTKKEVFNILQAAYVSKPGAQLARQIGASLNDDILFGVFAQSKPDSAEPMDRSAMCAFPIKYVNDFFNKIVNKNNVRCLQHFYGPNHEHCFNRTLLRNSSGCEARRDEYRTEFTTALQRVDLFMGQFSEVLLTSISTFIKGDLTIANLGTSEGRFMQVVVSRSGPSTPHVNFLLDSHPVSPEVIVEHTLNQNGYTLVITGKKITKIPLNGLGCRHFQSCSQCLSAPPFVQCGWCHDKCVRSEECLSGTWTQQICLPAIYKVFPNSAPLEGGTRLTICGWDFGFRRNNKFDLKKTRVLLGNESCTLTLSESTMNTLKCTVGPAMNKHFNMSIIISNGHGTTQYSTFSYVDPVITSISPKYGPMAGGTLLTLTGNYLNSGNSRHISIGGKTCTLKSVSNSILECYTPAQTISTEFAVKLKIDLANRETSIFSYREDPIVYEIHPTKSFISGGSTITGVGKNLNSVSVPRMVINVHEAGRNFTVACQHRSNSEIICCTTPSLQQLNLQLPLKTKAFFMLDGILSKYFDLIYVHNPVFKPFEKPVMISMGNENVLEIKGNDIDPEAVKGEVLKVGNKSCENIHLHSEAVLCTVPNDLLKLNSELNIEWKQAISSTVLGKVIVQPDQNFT
Method: (§1) Binding constants of the STaMPtides and monomeric macrocyclic peptides to their corresponding receptor ectodomains were determined by SPR analysis using Biacore T200 (Cytiva). HBS-EP + buffer (Cytiva) containing 0.1% dimethyl sulfoxide (DMSO; Sigma-Aldrich, St. Louis, MO, USA) was used as the running buffer. As ligands, recombinant human Met ectodomain-Fc and human EPOR ectodomain-Fc were immobilized to around 1000 response units on CM5 sensor chips using a human antibody capture kit (Cytiva). STaMPtides and monomeric macrocyclic peptides were injected in five concentrations at a flow rate of 30 μL/min using a single-cycle kinetics method. Binding constants were quantified by analysis of the 1:1 binding model.

Met = experiment: Cell-based phospho-Met ELISA (HuCCT1 cells); parameters: species or system human; conditions: phospho-Met ELISA and Erk signaling reporter assay
Method: The phosphorylation level of Met was evaluated according to a previously reported method[6],[32], with slight modifications. In brief, HuCCT-1 cells at a density of 10,000 cells/well were seeded on 96-well cell culture plates and incubated overnight in 5% CO2 at 37 °C. The cells were stimulated by rhHGF, purified HGF mimetic STaMPtides, and monomeric aMD4dY for 10 min in a 5% CO2 incubator at 37 °C. Next, cells were fixed using 4% paraformaldehyde in phosphate-buffered saline (PBS) for 20 min. Cells were washed three times with PBS and blocked with 1% BSA and 0.02% Triton X-100 in PBS for 30 min at room temperature. Cells were incubated with 1:1000 diluted phospho-Met (Tyr1234/1235) (D26) XP Rabbit mAb (Cell Signaling Technology) supplemented with 1% BSA in PBS at 4 °C overnight. After washing three times with PBS, the cells were incubated with 1:1000 diluted […] HRP-linked IgG antibody (Cell Signaling Technology) supplemented with 1% BSA in PBS at room temperature for 3 h. Cells were washed four times with PBS and incubated with 100 μL TMB substrate for 30 min. The reaction was stopped with an equal volume of 0.2 N sulfuric acid, and absorbance was quantified at 450 nm by the Molecular Imager ChemiDoc XRS System (Bio-Rad).

EPOR = target: T2, EPOR (Homo sapiens, UniProt P19235); experiment: EPOR-JAK2 functional assay (PathHunter); format: cell-based; conditions: for EPOR activation by serially diluted supernatants: decellularized supernatant; for EC50: purified, 3 h at room temperature, read-out: half-maximal effective concentration (EC50)
T2 sequence (P19235 25-508): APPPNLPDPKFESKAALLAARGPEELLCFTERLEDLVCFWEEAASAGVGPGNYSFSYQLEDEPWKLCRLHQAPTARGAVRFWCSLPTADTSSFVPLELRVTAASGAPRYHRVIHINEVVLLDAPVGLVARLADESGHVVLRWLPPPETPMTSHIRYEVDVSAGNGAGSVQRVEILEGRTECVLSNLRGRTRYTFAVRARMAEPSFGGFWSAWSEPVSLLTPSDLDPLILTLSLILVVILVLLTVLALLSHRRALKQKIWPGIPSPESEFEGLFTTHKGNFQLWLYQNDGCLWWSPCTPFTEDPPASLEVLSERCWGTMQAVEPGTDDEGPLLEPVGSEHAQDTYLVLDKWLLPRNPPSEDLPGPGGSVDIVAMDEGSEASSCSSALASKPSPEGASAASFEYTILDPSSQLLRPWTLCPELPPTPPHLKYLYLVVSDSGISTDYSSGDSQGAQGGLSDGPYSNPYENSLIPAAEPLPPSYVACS
Method: Agonistic activity against EPOR was assessed using the PathHunter® eXpress EpoR-JAK2 Functional Assay Kit (DiscoverX) according to the manufacturer’s instructions. Briefly, cells were seeded on a 96-well cell culture plate and incubated overnight in 5% CO2 at 37 °C. […] The cells were lysed with a substrate reagent, and chemiluminescence was detected using a Nivo plate reader (PerkinElmer).

human EPOR ectodomain-Fc = target: T3, human EPOR ectodomain-Fc (Homo sapiens, UniProt P19235); experiment: SPR analysis, human EPOR ectodomain; format: binding; conditions: for binding against EPOR: exact dissociation constants not determinable, too slow dissociation
T3 construct: human EPOR ectodomain-Fc; purchased R&D Systems
T3 sequence (P19235 25-250 limits assumed): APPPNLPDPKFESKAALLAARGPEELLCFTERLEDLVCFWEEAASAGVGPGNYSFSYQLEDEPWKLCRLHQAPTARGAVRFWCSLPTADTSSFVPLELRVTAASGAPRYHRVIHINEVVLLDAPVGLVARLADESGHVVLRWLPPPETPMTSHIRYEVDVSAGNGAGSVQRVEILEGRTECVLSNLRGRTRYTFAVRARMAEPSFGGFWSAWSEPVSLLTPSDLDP
Method: as §1

[2] = target: T4, Recombinant human EPOR ectodomain-Fc (human, UniProt P19235 25-250); experiment: SPR; Biacore T200; receptor ectodomain-Fc immobilised to around 1000 RU on CM5 chips with a human antibody capture kit; peptides injected in five concentrations at 30 uL/min, single-cycle kinetics; HBS-EP+ buffer with 0.1% DMSO; 1:1 binding model; mean and SD of triplicate experiments; conditions: both partners purified
T4 construct: erythropoietin receptor (EPOR), human, ectodomain; Captured on the chip with a human antibody capture kit, by its Fc; also called EPOR-Fc; rhEPOR ectodomain-Fc; source: bought: R&D Systems
T4 sequence (looked up): T3 sequence (P19235 25-250 limits assumed)

[3] = target: T4, Recombinant human EPOR ectodomain-Fc; experiment: SPR; Biacore T200; receptor ectodomain-Fc immobilised to around 1000 RU on CM5 chip by human antibody capture kit; peptides injected in five concentrations at 30 uL/min, single-cycle kinetics; HBS-EP+ buffer with 0.1% DMSO; 1:1 binding model; three runs (N 1-3) and their average
hPBMCs = experiment: Colony-forming assay; format: cell-based, human; conditions: at doses of 33 ng/mL or higher, 13 days
Method: Next, 1.1 mL of the mixture was seeded in a 6-well cell culture plate and cultured for 13 days in 5% CO2 at 37 °C. At day 13, colony numbers were counted, and images were taken by inverted microscopy and BZ-X fluorescence microscopy.

[4] = target: T5, Recombinant human Met ectodomain-Fc (human, UniProt P08581 25-932); experiment: SPR; Biacore T200; receptor ectodomain-Fc immobilised to around 1000 RU on CM5 chips with a human antibody capture kit; peptides injected in five concentrations at 30 uL/min, single-cycle kinetics; HBS-EP+ buffer with 0.1% DMSO; 1:1 binding model; mean and SD of triplicate experiments; conditions: both partners purified
T5 construct: Met, receptor of hepatocyte growth factor, human, ectodomain; Captured on the chip with a human antibody capture kit, by its Fc; also called Met-Fc; source: bought: R&D Systems
T5 sequence (P08581 25-932): as the sequence (P08581 25-932 limits assumed) above

## aMD4dY: modified macrocyclic Met-binding peptide: aMD4 without N-terminal D-Tyr, disulfide instead of thioether linkage (CRQFNRRTHEVWNLDC-OH; disulfide 1-16; N-terminus assumed; SMILES CC(C)C[C@@H]1NC(=O)[C@H](CC(N)=O)NC(=O)[C@H](Cc2c[nH]c3ccccc23)NC(=O)[C@H](C(C)C)NC(=O)[C@H](CCC(=O)O)NC(=O)[C@H](Cc2c[nH]cn2)NC(=O)[C@H]([C@@H](C)O)NC(=O)[C@H](CCCNC(=N)N)NC(=O)[C@H](CCCNC(=N)N)NC(=O)[C@H](CC(N)=O)NC(=O)[C@H](Cc2ccccc2)NC(=O)[C@H](CCC(N)=O)NC(=O)[C@H](CCCNC(=N)N)NC(=O)[C@@H](N)CSSC[C@@H](C(=O)O)NC(=O)[C@H](CC(=O)O)NC1=O)
[1]
  binding to human Met: retained its binding capacity to human Met
[1]; Table S1, Average of N 1-3
  kd: 0.045 M⁻¹ s⁻¹
[1]; Table S1, N 1
  KD: 39 nM
  kd: 0.04 M⁻¹ s⁻¹
[1]; Table S1, N 2
  KD: 53 nM
  kd: 0.05 M⁻¹ s⁻¹
[1]; Table S1, N 3
  KD: 44 nM
  kd: 0.044 M⁻¹ s⁻¹
Met
  Met phosphorylation and Erk-SRE signaling activation: did not activate Met

## AETGGLYACHMGPMTWVCQPLRGAAPAAPAPGGLYACHMGPMTWVCQPLRG (disulfide 9-18, 37-46) [EMP-PA8]
EPOR
  EPOR activation by serially diluted supernatants: activated EPOR, even at high dilutions
  EC50: 0.022 nM
Human EPOR ectodomain-Fc
  association rate higher than that of EMP35: 5–10 times
  binding against EPOR: strong binding potency
Human EPOR ectodomain-Fc; Table S1, Average of N 1-3
  Kd: 0.03 nM
  kd: 1e-05 M⁻¹ s⁻¹
Human EPOR ectodomain-Fc; Table S1, N 1
  KD: 0.034 nM
  kd: 1e-05 M⁻¹ s⁻¹
Human EPOR ectodomain-Fc; Table S1, N 2
  KD: 0.026 nM
  kd: 1e-05 M⁻¹ s⁻¹
Human EPOR ectodomain-Fc; Table S1, N 3
  KD: 0.03 nM
  kd: 1e-05 M⁻¹ s⁻¹

## CSCC[C@@H]1NC(=O)[C@H](Cc2c[nH]cn2)NC(=O)[C@@H](NC(=O)[C@H](C)NC(=O)[C@H](Cc2ccc(O)cc2)NC(=O)[C@H](CC(C)C)NC(=O)CNC(=O)CN)CSSC[C@@H](C(=O)N[C@@H](CCC(N)=O)C(=O)N2CCC[C@H]2C(=O)N[C@@H](CC(C)C)C(=O)N[C@@H](CCCNC(=N)N)C(=O)NCC(=O)O)NC(=O)[C@H](C(C)C)NC(=O)[C@H](Cc2c[nH]c3ccccc23)NC(=O)[C@H]([C@@H](C)O)NC(=O)[C@H](CCSC)NC(=O)[C@@H]2CCCN2C(=O)CNC1=O [EMP35, reference compound]
EPOR
  agonist potency weaker than STaMPtides: ~ 1000 times
Human EPOR ectodomain-Fc; Table S1, Average of N 1-3
  kd: 1e-05 M⁻¹ s⁻¹
Human EPOR ectodomain-Fc; Table S1, N 1
  KD: 0.089 nM
  kd: 1e-05 M⁻¹ s⁻¹
Human EPOR ectodomain-Fc; Table S1, N 2
  KD: 0.15 nM
  kd: 1e-05 M⁻¹ s⁻¹
Human EPOR ectodomain-Fc; Table S1, N 3
  KD: 1.3 nM
  kd: 1e-05 M⁻¹ s⁻¹
Human EPOR ectodomain-Fc
  binding against EPOR: strong binding potency

B1: EMP-PA22 (designed binder)
chain: AETGGLYACHMGPMTWVCQPLRGAAPAAPAPAAPAAPAPAAPAAPGGLYACHMGPMTWVCQPLRG
modifications: disulfide 9-18, 51-60 (inferred)
notes: Expressed with the CspB signal peptide of C. glutamicum ATCC13869; also called EMP-PA22 (STaMPtide); EPO mimetic STaMPtide; source: C. glutamicum YPS010, secreted into the supernatant, purified (RP-HPLC)
[2]
  Kd: < 0.013 nM
[3]
  Kd: < 0.0104 nM

B2: EMP-PA22: EPO mimetic STaMPtide, EMP35 dimerized with 22-amino-acid PA linker (peptide)
chain: B1 chain
modifications: disulfide 9-18, 51-60 (inferred)
EPOR
  EPOR activation by serially diluted supernatants: activated EPOR, even at high dilutions
  EC50: 0.22 nM
Human EPOR ectodomain-Fc
  association rate higher than that of EMP35: 5–10 times
  binding against EPOR: strong binding potency
Human EPOR ectodomain-Fc; Table S1, Average of N 1-3
  kd: 1e-05 M⁻¹ s⁻¹
Human EPOR ectodomain-Fc; Table S1, N 1
  KD: 0.014 nM
  kd: 1e-05 M⁻¹ s⁻¹
Human EPOR ectodomain-Fc; Table S1, N 2
  KD: 0.015 nM
  kd: 1e-05 M⁻¹ s⁻¹
Human EPOR ectodomain-Fc; Table S1, N 3
  KD: 0.01 nM
  kd: 1e-05 M⁻¹ s⁻¹
hPBMCs
  erythroid colony formation efficiency: equivalent to or higher than that of 10 ng/mL of rhEPO

B3: EMP-PA8 (designed binder)
chain: AETGGLYACHMGPMTWVCQPLRGAAPAAPAPGGLYACHMGPMTWVCQPLRG
modifications: disulfide 9-18, 37-46 (inferred)
notes: Expressed with the CspB signal peptide of C. glutamicum ATCC13869; also called EMP-PA8 (STaMPtide); EPO mimetic STaMPtide; source: C. glutamicum YPS010, secreted into the supernatant, purified (RP-HPLC)
[2]
  Kd: < 0.03 nM
[3]
  Kd: < 0.0257 nM

B4: aMD4dY (peptide)
peptide: CRQFNRRTHEVWNLDC-OH
modifications: disulfide 1-16; N-terminus assumed
SMILES: CC(C)C[C@@H]1NC(=O)[C@H](CC(N)=O)NC(=O)[C@H](Cc2c[nH]c3ccccc23)NC(=O)[C@H](C(C)C)NC(=O)[C@H](CCC(=O)O)NC(=O)[C@H](Cc2c[nH]cn2)NC(=O)[C@H]([C@@H](C)O)NC(=O)[C@H](CCCNC(=N)N)NC(=O)[C@H](CCCNC(=N)N)NC(=O)[C@H](CC(N)=O)NC(=O)[C@H](Cc2ccccc2)NC(=O)[C@H](CCC(N)=O)NC(=O)[C@H](CCCNC(=N)N)NC(=O)[C@@H](N)CSSC[C@@H](C(=O)O)NC(=O)[C@H](CC(=O)O)NC1=O
notes: also called aMD4dY (Monomer); monomeric aMD4dY; source: synthetic peptide (GenScript Japan)
[4]
  Kd: 45 nM

B5: EMP35 (peptide)
peptide: GGLYACHMGPMTWVCQPLRG
modifications: disulfide 6-15
notes: also called EMP35 (Monomer); monomeric EMP35; source: synthetic peptide (GenScript Japan)
[2]
  Kd: < 0.5 nM
[3]
  Kd: < 0.0887 nM
